Test [1] deals with T1, TNFR2(ed)-CRD1-GpL (Homo sapiens, point mutant).
T1 construct: TNFR2, CRD1 of the ectodomain; also called GpL fusion protein of the TNFR2 CRD1 alone; source: HEK293T, transient transfection (PEI); not shown: GpL (Gaussia princeps luciferase), C-terminal, kept
T1 chain: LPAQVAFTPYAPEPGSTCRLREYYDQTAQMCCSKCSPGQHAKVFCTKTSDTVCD
The test is described as follows: cell-free binding of GpL-tagged receptor fragments to plate-captured antibody; plates coated with 1 µg/ml protein G, antibody (1 µg/ml) captured 1 h at 37°C, 500 ng/ml TNFR2-GpL fusion proteins added in medium for 2 h at 37°C, well-associated luminescence; irrelevant IgG1 wells subtracted. To be noted: partners not purified.

Test [2] addresses T2, TNFR2(ed)-CRD1-3-GpL (Homo sapiens, point mutant).
T2 construct: TNFR2, CRD1-CRD3 of the ectodomain; also called GpL-tagged deletion mutant of the TNFR2 ectodomain lacking the stalk region + CRD4; source: HEK293T, transient transfection (PEI); not shown: GpL (Gaussia princeps luciferase), C-terminal, kept
T2 chain: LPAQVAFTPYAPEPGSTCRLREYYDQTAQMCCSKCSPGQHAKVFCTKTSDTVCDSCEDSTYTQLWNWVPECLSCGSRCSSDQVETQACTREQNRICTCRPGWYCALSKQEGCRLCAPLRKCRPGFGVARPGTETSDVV
The description is as above. To be noted: partners not purified.

Test [3] concerns the target T3, TNFR2(ed)-CRD1-2-GpL (Homo sapiens, point mutant).
T3 construct: TNFR2, CRD1-CRD2 of the ectodomain; also called GpL-tagged deletion mutant of the TNFR2 ectodomain lacking the stalk region + CRDs 3 and 4; source: HEK293T, transient transfection (PEI); not shown: GpL (Gaussia princeps luciferase), C-terminal, kept
T3 chain: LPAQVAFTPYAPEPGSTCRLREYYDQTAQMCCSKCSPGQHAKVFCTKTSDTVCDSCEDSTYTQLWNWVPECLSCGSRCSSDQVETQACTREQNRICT
The test is described as above. The note with it: partners not purified.

In test [4] the target is T4, TNFR2(ed)-CRD1-4-GpL (Homo sapiens, point mutant).
T4 construct: TNFR2, CRD1-CRD4 of the ectodomain (stalk region lacking); also called GpL-tagged deletion mutant of the TNFR2 ectodomain lacking the stalk region; source: HEK293T, transient transfection (PEI); not shown: GpL (Gaussia princeps luciferase), C-terminal, kept
T4 chain: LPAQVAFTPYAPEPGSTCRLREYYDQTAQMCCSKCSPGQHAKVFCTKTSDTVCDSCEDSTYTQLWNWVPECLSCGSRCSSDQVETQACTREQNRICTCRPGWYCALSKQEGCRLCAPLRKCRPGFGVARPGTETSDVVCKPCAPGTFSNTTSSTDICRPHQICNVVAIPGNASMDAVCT
The test is described as above. The note with it: partners not purified.

Test [5] addresses T5, CD40 on HT1080-CD40 cells (Homo sapiens, UniProt P25942).
T5 construct: CD40 expressed on HT1080-CD40 transfectants; also called CD40-expressing cells
The test can be described thus: cellular competition binding with a GpL-TNFL fusion protein; HT1080 transfectants (2 x 10^4 per well) incubated with an excess of the GpL-free antibody (10 µg/ml) or VHH Fc fusion protein for 30 minutes, then GpL-TNFL added at a concentration close to its KD (typically 1 - 100 ng/ml); remaining specific binding against TNFR negative HT1080 cells. The note with it: partners not purified.

In test [6] the target is T5, CD40 on HT1080-CD40 cells. The test can be described thus: cellular equilibrium binding of a GpL (luciferase) fusion protein; adherent HT1080-CD40 cells in 96-well plates (2 x 10^4 cells/well), two-fold dilution series of the GpL antibody fusion protein, 37°C, 30 min to 1 h, five washes with icecold PBS, cell-associated luminescence; non-specific binding from HT1080 cells, from cells blocked with an excess of the GpL-free antibody, or from an irrelevant IgG1-LC:GpL; one …. To be noted: partners not purified.

In test [7] the target is T6, CD40(ed)-Fc (Homo sapiens, UniProt P25942).
T6 construct: extracellular domain of CD40; coated directly on the plate; the legend's footnote says that purified TNFR(ed)-Fc can be coated directly, so it was probably purified; also called Fc fusion protein of the extracellular CD40 domain; source: HEK293T, transient transfection (said of the recombinant proteins in general)
T6 sequence (P25942 21-193): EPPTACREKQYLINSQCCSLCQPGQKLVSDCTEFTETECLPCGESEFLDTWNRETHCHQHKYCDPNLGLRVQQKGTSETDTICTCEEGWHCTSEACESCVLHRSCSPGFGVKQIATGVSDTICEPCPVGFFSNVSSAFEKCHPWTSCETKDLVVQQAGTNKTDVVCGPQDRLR
The test is described as follows: cell-free equilibrium binding of a GpL (luciferase) fusion protein on coated plates; black high binding 96-well plates coated with 1 µg/ml CD40(ed)-Fc in 0,1 M carbonate buffer at 4°C overnight, blocked with 10% FCS in PBS, two-fold dilution series of the GpL antibody fusion protein, 37°C, 1 h; non-specific binding from irrTNFR(ed)-Fc wells, from wells blocked with an excess of the GpL-free antibody, or from an …. To be noted: one partner purified.

T5 sequence (P25942 21-277): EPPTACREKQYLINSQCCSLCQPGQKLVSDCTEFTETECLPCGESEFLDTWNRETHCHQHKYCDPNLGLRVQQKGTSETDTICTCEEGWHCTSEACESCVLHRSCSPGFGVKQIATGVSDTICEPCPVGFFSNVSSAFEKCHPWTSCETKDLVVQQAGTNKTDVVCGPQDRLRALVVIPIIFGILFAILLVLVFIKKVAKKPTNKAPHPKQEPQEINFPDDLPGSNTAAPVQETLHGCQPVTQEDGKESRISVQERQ

B1: anti-TNFR2(68/69)-IgG1(N297A) (antibody, V domains shown)
VH: QVTLKESGPALVKPTQTLTLTCTFSGFSLSTSGMGVGWIRQPPGKALEWLAHIWWDDDKFYNPSLKSRLTISKDTSKNQVVLTMTNMDPVDTATYYCARLTGTRYFDYWGQGTTVTVSS
VL: DVQMTQSPSSLSASVGDRVTITCKASQDINKFIAWYQQKPGKAPKLLIHYTSTLQPGIPSRFSGSGSGRDYTFTISSLQPEDIATYYCLQYGNLWTFGGGTKVEIK
notes: heavy chain of recombinant anti-TNFR2 IgG1(N297A) clone SBT-002 (68/69); light chain of recombinant anti-TNFR2 clone SBT-002 (68/69); IgG1 with N297A in the Fc; also called SBT-002; anti-TNFR2 antibody 68/69; source: HEK293T, transient transfection (PEI)
As for B1, the binding result in test [1] is “no binding (tested: 500 ng/ml)”; in test [2] it was “binds”; in test [3], “binds”; in test [4], “binds”.

B2: Anti-CD40(ADC)-IgG1 (antibody, V domains shown)
VH: EVQLLESGGGLVQPGGSLRLSCAASGFTFSTYGMHWVRQAPGKGLEWLSYISGGSSYIFYADSVRGRFTISRDNSENALYLQMNSLRAEDTAVYYCARILRGGSGMDLWGQGTLVTVSS
VL: QSVLTQPPSASGTPGQRVTISCTGSSSNIGAGYNVYWYQQLPGTAPKLLIYGNINRPSGVPDRFSGSKSGTSASLAISGLRSEDEADYYCAAWDKSISGLVFGGGTKLTVL
notes: heavy chain of recombinant anti-CD40 IgG1 clone ADC1013; light chain of recombinant anti-CD40 IgG1 clone ADC1013; IgG1; also called ADC1013; variant of the anti-CD40 antibody ADC-1013; source: HEK293T, transient transfection (PEI)
As to B2, the binding result in test [5] was “binds”.

B3: anti-CD40(G28.5)-IgG1-LC : GpL (antibody, V domains shown)
VH: DIQLQQSGPGLVKPSQSLSLTCSVTGYSITTNYNWNWIRQFPGNKLEWMGYIRYDGTSEYTPSLKNRVSITRDTSMNQFFLRLTSVTPEDTATYYCARLDYWGQGTLVTVSS
VL: DIVMTQNPLSLPVSLGDEASISCRSSQSLENSNGNTFLNWFFQKPGQSPQLLIYRVSNRFSGVPDRFSGSGSGTDFTLKISRVEAEDLGVYFCLQVTHVPYTFGGGTTLEIK
notes: heavy chain of recombinant anti-CD40 IgG1 clone G28.5; light chain of recombinant anti-CD40 IgG1 clone G28.5; IgG1; GpL domain on the C-terminus of the light chain; also called GpL-Ab-Fp of the CD40-specific antibody G28.5; source: HEK293T, transient transfection (PEI), cell culture supernatant; not shown: GpL (Gaussia princeps luciferase), C-terminal, kept
Consider B3, for which the binding result in test [6] and in test [7] was “binds” throughout.

B4: anti-CD40(G28.5)-IgG1 (antibody, V domains shown)
VH: B3 VH
VL: B3 VL
notes: as the heavy chain of m1; as the light chain of m1, without the GpL domain; IgG1; also called GpL-free version of G28.5; source: HEK293T, transient transfection (PEI)
Take B4: the binding result in test [6] and in test [7] was “binds” each time.
